In patent publication EP4782837A1:

Biological target: Cetux-probe (cetuximab conjugated with the C-probe)
Assay: cell-based or functional assay

“papain (from UniProt P00784 134-345) (enzyme)” gave a fold increase of Cetux-probe fluorescence on enzyme treatment (37°C, 1 hour) of 13.5 fold.

In the case of cathepsin B (enzyme), the fold increase of Cetux-probe fluorescence on enzyme treatment (37°C, 1 hour) is reported as 24 fold.
